Biological target: T1, GST-tagged PTP1B, full length (UniProt P18031 1-435)
T1 construct: protein tyrosine phosphatase PTP1B (PTPN1), full-length cDNA subcloned into pGEX-4T1; The cDNA probably comes from pJ3H PTP1B (Addgene 8601); also called GST-PTP1B; source: E. coli, purified (glutathione resin)
T1 sequence (looked up): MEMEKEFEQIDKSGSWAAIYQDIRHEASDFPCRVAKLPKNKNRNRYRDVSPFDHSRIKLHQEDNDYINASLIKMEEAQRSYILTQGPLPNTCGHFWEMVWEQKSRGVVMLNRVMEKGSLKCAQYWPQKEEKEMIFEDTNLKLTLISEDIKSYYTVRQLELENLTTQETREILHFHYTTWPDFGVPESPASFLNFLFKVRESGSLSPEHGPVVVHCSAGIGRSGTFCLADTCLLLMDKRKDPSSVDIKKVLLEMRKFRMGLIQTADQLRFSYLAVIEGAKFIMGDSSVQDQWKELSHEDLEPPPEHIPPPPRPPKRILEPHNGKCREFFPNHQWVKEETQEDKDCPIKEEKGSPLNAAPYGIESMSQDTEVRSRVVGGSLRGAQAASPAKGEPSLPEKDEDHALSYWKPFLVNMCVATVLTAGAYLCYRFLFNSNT
Test: pull-down; GST pull-down with purified proteins from E. coli: His-PDL1-CT / MBP-PDL1-CT (0.5 μg) and 0.5 μg GST or GST-fusion proteins
Settings: both partners purified

binding result: binds
B1: MBP-tagged PD-L1 cytoplasmic domain (domain or fragment, human, UniProt Q9NZQ7 262-290, looked up)
chain: RKGRMMDVKKCGIQDTNSKKQSDTHLEET
notes: PD-L1 cytoplasmic domain, human, amino acids 262-290, subcloned into pET-His6 (Addgene plasmid 29656; named in the acknowledgements as PET His6 MBP TEV LIC cloning vector); The results and legend call it MBP-PDL1-CT, the methods of the pull-down His-PDL1-CT; also called MBP-PDL1-CT; His-PDL1-CT; source: E. coli, purified (His resin)
